Assay results reported in patent US20070253967A1, “Agent for the treatment and/or prophylaxis of microcirculatory disorders” (priority 1997, published 2007).

Molecular target: T1, fibrinogen (Homo sapiens, UniProt P02675+P02679)
T1 construct: then loaded with heparinized plasma (40 ml); from tissue; host or cells: heparinized plasma
Experiment: Specifity of the coupled Sepharose by SDS gel electrophoresis
Type: binding
Conditions: statement in the description
Method: The pentapeptide Gly-Pro-Arg-Pro-Lys was synthetized as trifluoracetate and coupled to cyanobromide-active Sepharose CL-4B. The specifity of the coupled Sepharose was tested by means of SDS gel electrophoresis.

T1 sequence (P02671 20-629 partner limits assumed): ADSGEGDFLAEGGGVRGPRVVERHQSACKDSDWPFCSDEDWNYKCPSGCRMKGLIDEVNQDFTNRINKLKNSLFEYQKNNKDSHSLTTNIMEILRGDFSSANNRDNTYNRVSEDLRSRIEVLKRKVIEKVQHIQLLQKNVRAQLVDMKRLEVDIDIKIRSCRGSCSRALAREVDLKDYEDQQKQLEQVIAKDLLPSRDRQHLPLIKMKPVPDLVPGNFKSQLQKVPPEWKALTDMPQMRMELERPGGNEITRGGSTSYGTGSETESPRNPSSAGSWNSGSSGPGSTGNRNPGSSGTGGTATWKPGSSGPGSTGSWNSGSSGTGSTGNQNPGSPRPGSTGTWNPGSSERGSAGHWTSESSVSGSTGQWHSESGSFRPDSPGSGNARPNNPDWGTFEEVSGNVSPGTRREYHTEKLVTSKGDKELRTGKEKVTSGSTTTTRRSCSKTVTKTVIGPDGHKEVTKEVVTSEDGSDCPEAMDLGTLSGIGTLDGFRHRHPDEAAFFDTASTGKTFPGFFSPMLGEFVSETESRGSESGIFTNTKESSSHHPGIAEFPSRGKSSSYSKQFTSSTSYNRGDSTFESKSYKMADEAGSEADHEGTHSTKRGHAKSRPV
T1 sequence (P02675 31-491): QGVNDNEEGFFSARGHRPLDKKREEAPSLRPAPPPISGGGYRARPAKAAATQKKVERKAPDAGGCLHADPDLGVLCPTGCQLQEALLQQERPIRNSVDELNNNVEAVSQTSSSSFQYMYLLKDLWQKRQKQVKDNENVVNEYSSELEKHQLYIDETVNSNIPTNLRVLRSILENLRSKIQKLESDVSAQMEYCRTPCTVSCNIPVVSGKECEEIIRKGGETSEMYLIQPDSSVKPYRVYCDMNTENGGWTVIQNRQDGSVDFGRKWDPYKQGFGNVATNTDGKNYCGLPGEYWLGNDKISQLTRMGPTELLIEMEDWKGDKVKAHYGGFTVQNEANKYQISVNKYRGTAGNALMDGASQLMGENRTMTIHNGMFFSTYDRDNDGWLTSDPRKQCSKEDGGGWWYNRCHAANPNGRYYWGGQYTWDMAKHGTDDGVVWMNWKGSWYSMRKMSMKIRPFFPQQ
T1 sequence (P02679 27-453): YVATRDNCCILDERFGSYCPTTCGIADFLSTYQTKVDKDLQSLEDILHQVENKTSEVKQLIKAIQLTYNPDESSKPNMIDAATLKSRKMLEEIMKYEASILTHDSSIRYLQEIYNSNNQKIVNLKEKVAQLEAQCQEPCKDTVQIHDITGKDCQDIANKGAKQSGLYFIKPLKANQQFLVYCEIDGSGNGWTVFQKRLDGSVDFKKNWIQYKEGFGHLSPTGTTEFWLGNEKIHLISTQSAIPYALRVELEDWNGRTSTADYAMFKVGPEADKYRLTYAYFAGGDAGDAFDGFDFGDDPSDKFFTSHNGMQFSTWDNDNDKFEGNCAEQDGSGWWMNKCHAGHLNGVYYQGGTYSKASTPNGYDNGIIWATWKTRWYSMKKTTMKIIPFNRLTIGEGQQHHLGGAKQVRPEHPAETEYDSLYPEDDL

## Gly-Pro-Arg-Pro-Lys (GPRPK; printed: Gly-Pro-Arg-Pro-Lys) [pentapeptide ligand for fibrinogen and/or fibrin]
  specifity for fibrinogen and/or fibrin: very high specifity
